In paper PMC8147241, “Trimerization of the N-Terminal Tail of Zika Virus NS4A Protein: A Potential In Vitro Antiviral Screening Assay” (Membranes, 2021):

Tests used:
[1] = target: ZIKV NS4A N-terminal peptide (4–58) (Zika virus (strain MR-766)); assay: static light scattering; Debye plot of KC/Rθ against protein concentration, Zetasizer Nano-ZS, 25 °C; aqueous solution without detergents or liposomes; n = 5 independent samples per concentration
[2] = target: the molecule itself; assay: SEC; Superdex 200 Increase 10/300 GL, 20 mM Tris-HCl, 300 mM NaCl, pH 8, with 4 mM n-decyl-β-D-maltoside

Row | Molecule | stoichiometry N [1] | binding result [2]
1 | ZIKV NS4A N-terminal peptide (4–58) (domain or fragment) | 3 | 
2 | full-length ZIKV NS4A protein (1–127) (natural protein, Zika virus NS4A protein, strain MR-766, full length, residues 1-127 of NS4A; numbers count on: the mature NS4A protein (127 residues); Vector pNIC28-Bsa4; a TEV protease cleavage site stands between the His6 tag and the protein; No cleavage is described; also called full-length NS4A; source: E. coli BL21 (DE3) Rosetta T1R, purified (Ni-charged IMAC and SEC in 4 mM n-decyl-β-D-maltoside)) GAALGVMEALGTLPGHMTERFQEAIDNLAVLMRAETGSRPYKAAAAQLPETLETIMLLGLLGTVSLGIFFVLMRNKGIGKMGFGMVTLGASAWLMWLSEIEPARIACVLIVVFLLLVVLIPEPEKQR |  | binds
